Source: the supplement of paper PMC11908140

B1: library; numbered along this chain (parent)
chain: MRKPRAAVGSGHRKQAASQEGRQKHAKNNSQAKPSACDGLARQPEEVVLQASVSSYHLFRDVAEVTAFRGSLLSWYDQEKRDLPWRRRAEDEMDLDRRAYAVWVSEVMLQQTQVATVINYYTGWMQKWPTLQDLASASLEEVNQLWAGLGYYSRGRRLQEGARKVVEELGGHMPRTAETLQQLLPGVGRYTAGAIASIAFGQATGVVDGNVARVLCRVRAIGADPSSTLVSQQLWGLAQQLVDPARPGDFNQAAMELGATVCTPQRPLCSQCPVESLCRARQRVEQEQLLASGSLSGSPDVEECAPNTGQCHLCLPPSEPWDQTLGVVNFPRKASRKPPREESSATCVLEQPGALGAQILLVQRPNSGLLAGLWEFPSVTWEPSEQLQRKALLQELQRWAGPLPATHLRHLGEVVHTFSHIKLTYQVYGLALEGQTPVTTVPPGARWLTQEEFHTAAVSTAMKKVFRVYQGQQPGTCMGSKRSQVSSPCSRKKPRMGQQVLDNFFRSHISTDAHSLNSAAQ

Variants of: B1
Experiment: 8OG:A repair function score (normalized; synonymous = 0, nonsense = -1) (normalized log-likelihood score); higher = more repair activity (WT-like)
Details: with 8OG:A DNA repair reporter (GFP) in HEK-293 MUTYH KO cells
Outline: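 Lentiviral MUTYH cDNA NNN codon-scan libraries in HEK-293 MUTYH knockout cells (10 pg/ml doxycycline) were co-transfected with an 8OG:A GFP repair reporter plus mCherry. At 72 h, viable mCherry+ cells were sorted into GFP+ (repair) and GFP− bins, three replicates per tile, then tile amplicons were sequenced. Per-tile Rosace fitness scores became a normalized repair function score anchored on synonymous and nonsense distributions. Synonymous medians were set to 0 and nonsense to -1; variants under 300 counts per million at the start were removed.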

Q: For MRKPRAAVGSGHRKQAASQEGRQKHAKNNSQAKPSACDGLARQPEEVVLQASVSSYHLFRDVAEVTAFRGSLLSWYDQEKRDLPWRRRAEDEMDLDRRAYAVWVSEVMLQQTQVATVINYYTGWMQKWPTLQDLASASLEEVNQLWAGLGYYSRGRRLQEGARKVVEELGGHMPRTAETLQQLLPGVGRYTAGAIASIAFGQATGVVDGNVARVLCRVRAIGADPSSTLVSQQLWGLAQQLVDPARPGDFNQAAMELGATVCTPQRPLCSQCPVESLCRARQRVEQEQLLASGSLSGSPDVEECAPNTGQCHLCLPPSEPWDQTLGVVNFPRKASRKPPREESSATCVLEQPGALGAQILLVQRPNSGLLAGLWEFPSVTWEPSEQLQRKALLQELQRWAGPLPATHLRHLGEVVHTFSHIKLTYQVYGLALEGQTPVTTVPPGARWLTQEEFHTAAVSTAMKKVFRVYQGQQPGTCMGFKRSQVSSPCSRKKPRMGQQVLDNFFRSHISTDAHSLNSAAQ [S480F], which “8OG:A repair function score” value is on record?
A: -0.0271

Q: For MRKPRAAVGSGHRKQAASQEGRQKHAKNNSQAKPSACDGLARQPEEVVLQASVSSYHLFRDVAEVTAFRGSLLSWYDQEKRDLPWRRRAEDEMDLDRRAYAVWVSEVMLQQTQVATVINYYTGWMQKWPTLQDLASASLEEVNQLWAGLGYYSRGRRLQEGARKVVEELGGHMPRTAETLQQLLPGVGRYTAGAIASIAFGQATGVVDGNVARVLCRVRAIGADPSSTLVSQQLWGLAQQLVDPARPGDFNQAAMELGATVCTPQRPLCSQCPVESLCRARQRVEQEQLLASGSLSGSPDVEECAPNTGQCHLCLPPSEPWDQTLGVVNFPRKASRKPPREESSATCVLEQPGALGAQILLVQRPNSGLLAGLWEFPSVTWEPSEQLQRKALLQELQRWAGPLPATHLRHLGEVVHTFSHIKLTYQVYGLALEGQTPVTTVPPGARWLTQEEFHTAAVSTAMKKVFRVYQGQQPGTCMGDKRSQVSSPCSRKKPRMGQQVLDNFFRSHISTDAHSLNSAAQ [S480D], which “8OG:A repair function score” value is on record?
A: 0.0166

Q: With MRKPRAAVGSGHRKQAASQEGRQKHAKNNSQAKPSACDGLARQPEEVVLQASVSSYHLFRDVAEVTAFRGSLLSWYDQEKRDLPWRRRAEDEMDLDRRAYAVWVSEVMLQQTQVATVINYYTGWMQKWPTLQDLASASLEEVNQLWAGLGYYSRGRRLQEGARKVVEELGGHMPRTAETLQQLLPGVGRYTAGAIASIAFGQATGVVDGNVARVLCRVRAIGADPSSTLVSQQLWGLAQQLVDPARPGDFNQAAMELGATVCTPQRPLCSQCPVESLCRARQRVEQEQLLASGSLSGSPDVEECAPNTGQCHLCLPPSEPWDQTLGVVNFPRKASRKPPREESSATCVLEQPGALGAQILLVQRPNSGLLAGLWEFPSVTWEPSEQLQRKALLQELQRWAGPLPATHLRHLGEVVHTFSHIKLTYQVYGLALEGQTPVTTVPPGARWLTQEEFHTAAVSTAMKKVFRVYQGQQPGTCMGAKRSQVSSPCSRKKPRMGQQVLDNFFRSHISTDAHSLNSAAQ [S480A] as the variant, how does the “8OG:A repair function score” value read?
A: 0.0216

Q: For MRKPRAAVGSGHRKQAASQEGRQKHAKNNSQAKPSACDGLARQPEEVVLQASVSSYHLFRDVAEVTAFRGSLLSWYDQEKRDLPWRRRAEDEMDLDRRAYAVWVSEVMLQQTQVATVINYYTGWMQKWPTLQDLASASLEEVNQLWAGLGYYSRGRRLQEGARKVVEELGGHMPRTAETLQQLLPGVGRYTAGAIASIAFGQATGVVDGNVARVLCRVRAIGADPSSTLVSQQLWGLAQQLVDPARPGDFNQAAMELGATVCTPQRPLCSQCPVESLCRARQRVEQEQLLASGSLSGSPDVEECAPNTGQCHLCLPPSEPWDQTLGVVNFPRKASRKPPREESSATCVLEQPGALGAQILLVQRPNSGLLAGLWEFPSVTWEPSEQLQRKALLQELQRWAGPLPATHLRHLGEVVHTFSHIKLTYQVYGLALEGQTPVTTVPPGARWLTQEEFHTAAVSTAMKKVFRVYQGQQPGTCMGIKRSQVSSPCSRKKPRMGQQVLDNFFRSHISTDAHSLNSAAQ [S480I], which “8OG:A repair function score” value is on record?
A: -0.0226

Q: MRKPRAAVGSGHRKQAASQEGRQKHAKNNSQAKPSACDGLARQPEEVVLQASVSSYHLFRDVAEVTAFRGSLLSWYDQEKRDLPWRRRAEDEMDLDRRAYAVWVSEVMLQQTQVATVINYYTGWMQKWPTLQDLASASLEEVNQLWAGLGYYSRGRRLQEGARKVVEELGGHMPRTAETLQQLLPGVGRYTAGAIASIAFGQATGVVDGNVARVLCRVRAIGADPSSTLVSQQLWGLAQQLVDPARPGDFNQAAMELGATVCTPQRPLCSQCPVESLCRARQRVEQEQLLASGSLSGSPDVEECAPNTGQCHLCLPPSEPWDQTLGVVNFPRKASRKPPREESSATCVLEQPGALGAQILLVQRPNSGLLAGLWEFPSVTWEPSEQLQRKALLQELQRWAGPLPATHLRHLGEVVHTFSHIKLTYQVYGLALEGQTPVTTVPPGARWLTQEEFHTAAVSTAMKKVFRVYQGQQPGTCMGGKRSQVSSPCSRKKPRMGQQVLDNFFRSHISTDAHSLNSAAQ [S480G] was tested. Which “8OG:A repair function score” value did it give?
A: 0.00341

Q: For MRKPRAAVGSGHRKQAASQEGRQKHAKNNSQAKPSACDGLARQPEEVVLQASVSSYHLFRDVAEVTAFRGSLLSWYDQEKRDLPWRRRAEDEMDLDRRAYAVWVSEVMLQQTQVATVINYYTGWMQKWPTLQDLASASLEEVNQLWAGLGYYSRGRRLQEGARKVVEELGGHMPRTAETLQQLLPGVGRYTAGAIASIAFGQATGVVDGNVARVLCRVRAIGADPSSTLVSQQLWGLAQQLVDPARPGDFNQAAMELGATVCTPQRPLCSQCPVESLCRARQRVEQEQLLASGSLSGSPDVEECAPNTGQCHLCLPPSEPWDQTLGVVNFPRKASRKPPREESSATCVLEQPGALGAQILLVQRPNSGLLAGLWEFPSVTWEPSEQLQRKALLQELQRWAGPLPATHLRHLGEVVHTFSHIKLTYQVYGLALEGQTPVTTVPPGARWLTQEEFHTAAVSTAMKKVFRVYQGQQPGTCMGHKRSQVSSPCSRKKPRMGQQVLDNFFRSHISTDAHSLNSAAQ [S480H], which “8OG:A repair function score” value is on record?
A: 0.0192
